These results are taken from patent publication US20260109776A1 (Amgen, published 2026).

The chains are these.
T1: human TNFR1 (human, UniProt P19438 30-455)
T1 construct: whole, on cells
T1 sequence (looked up): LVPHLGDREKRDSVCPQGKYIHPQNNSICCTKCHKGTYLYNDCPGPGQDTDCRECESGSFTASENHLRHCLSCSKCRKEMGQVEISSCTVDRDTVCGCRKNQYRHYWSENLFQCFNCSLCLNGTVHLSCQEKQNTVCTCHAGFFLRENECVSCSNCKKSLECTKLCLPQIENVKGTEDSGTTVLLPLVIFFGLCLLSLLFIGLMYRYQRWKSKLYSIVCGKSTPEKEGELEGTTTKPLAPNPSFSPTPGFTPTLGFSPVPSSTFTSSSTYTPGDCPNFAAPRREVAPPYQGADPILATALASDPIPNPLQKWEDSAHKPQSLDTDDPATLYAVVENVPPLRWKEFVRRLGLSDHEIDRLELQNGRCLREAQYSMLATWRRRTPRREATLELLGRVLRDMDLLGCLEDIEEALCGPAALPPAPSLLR

T2: human TNFR14 (human, UniProt Q92956 39-283)
T2 construct: whole, on cells
T2 sequence (looked up): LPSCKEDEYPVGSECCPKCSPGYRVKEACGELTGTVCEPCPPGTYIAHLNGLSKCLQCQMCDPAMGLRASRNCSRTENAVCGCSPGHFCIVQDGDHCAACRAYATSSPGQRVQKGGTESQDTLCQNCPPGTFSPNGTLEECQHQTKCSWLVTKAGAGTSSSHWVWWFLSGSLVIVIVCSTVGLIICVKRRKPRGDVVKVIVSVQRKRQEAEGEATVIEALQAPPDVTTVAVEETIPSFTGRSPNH

T3: cynomolgus monkey CD40 on cells (cynomolgus monkey, UniProt P25942 21-277 (human entry))
T3 construct: also called cyno CD40 on HEK293 cells; CD40 on cynomolgus monkey B cells
T3 chain: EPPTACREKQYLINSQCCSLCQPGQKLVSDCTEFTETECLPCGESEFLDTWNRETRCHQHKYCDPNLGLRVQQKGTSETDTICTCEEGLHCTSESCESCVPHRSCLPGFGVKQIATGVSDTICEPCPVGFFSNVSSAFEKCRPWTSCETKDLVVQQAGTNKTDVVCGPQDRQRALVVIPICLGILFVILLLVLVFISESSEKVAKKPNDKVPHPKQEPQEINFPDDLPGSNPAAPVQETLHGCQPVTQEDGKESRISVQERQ

T4: human TNFR2 (human, UniProt P20333 23-461)
T4 construct: whole, on cells
T4 sequence (looked up): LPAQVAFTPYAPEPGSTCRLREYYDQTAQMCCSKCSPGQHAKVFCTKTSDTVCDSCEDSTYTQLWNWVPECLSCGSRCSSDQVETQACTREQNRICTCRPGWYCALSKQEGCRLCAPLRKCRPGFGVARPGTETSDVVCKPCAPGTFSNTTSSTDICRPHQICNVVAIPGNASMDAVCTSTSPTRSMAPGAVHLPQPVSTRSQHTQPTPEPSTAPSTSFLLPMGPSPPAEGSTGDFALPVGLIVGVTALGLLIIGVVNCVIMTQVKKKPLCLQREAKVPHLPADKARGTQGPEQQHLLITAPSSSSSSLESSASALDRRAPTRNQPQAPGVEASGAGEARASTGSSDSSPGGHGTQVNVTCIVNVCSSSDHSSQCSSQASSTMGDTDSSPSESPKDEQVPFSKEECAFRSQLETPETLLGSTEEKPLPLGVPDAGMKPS

B1: 35F11 (antibody, IgG4, V domains shown)
VH: QVQLVESGGGVVQPGRSLRLSCAASGFTLSSYGMHWVRQAPGKGLEWVAVIWYDGSNKYYADSVKGRVTISRDNSKNTLYLQMNSLRAEDTAVYYCTRDGRNYVYFDNWGQGTLVTVSS
VL: QSALTQPRSVSGSPGQSVTISCTGTSSDVGGYIFVSWYQQHPGKAPKLMIYDVSKRPSGVPDRFSGSKSVNTASLTISGLQAEDETDYYCCSYAGNYTYVFGTGTKVTVLG
notes: also called 4868-1
B2: 4G7 (antibody, IgG4, V domains shown)
VH: QVQLVQSGAEVKKPGASVKVSCKASGYTFAGYYMHWVRQAPGQGLEWMGWINPDSGGTNFAQQFQGRVTMTRDTSISTAYMEVSRLRSDDTAVFYCAREKITMTGIYFDYWGQGTLVTVSS
VL: DIQMTQSPSSLSASVGDILTITCRASQNITTYLNWYQQKPGKAPNLLISAASRLRSGVPSRFSGSGSGTDFTLTISSLQPVDFTTFYCQQTFTTPWTFGQGTKVEIKR
notes: also called 4869-1
B3: 39C2 (antibody, IgG4, V domains shown)
VH: QVQLVQSGTEVKKPGASVKVSCKASGYTFPGYYMHWVRQAPGQGLEWMGWINPDSGGTKYTQKFQGRVTLTRDASVSTAYIDLNRLRSDDTAVYYCARERCRTTNCYLDYWGQGSLVTVSS
VL: QSALTQPASVSGSPGQSITISCTGTSSDVGNYNLVSWYQQHPGKAPKLMIYEVNRRPSGVSNRFSGSKSGNTASLTISGLQAEDEAEYYCCSYAGRDTFVVFGGGTKLTVLG
notes: also called 4887-1
B4: 30A12 (antibody, IgG4, V domains shown)
VH: EVQLLESGGGLVQPGGSLRLSCAASGFTFSRNAMSWVRQAPGKGLEWVSATGGSGISTYYADSVKGRFTISRDNSKNTLYLQMNSLRAEDTAVYYCARGYSNSWWYFDYWGQGTLVTVSS
VL: QSALTQPASVSGSPGQSITISCTGTSSDVGNYNLVSWYQQHPGKAPKLMIFEVNQRPSGVSNRFSGSKSGTTASLTISGLQAADEADYFCCSYTTSSTYVIFGGGTKLTVLG
notes: also called 4878-1

The first test deals with T5, human CD40 on cells (human, UniProt P25942 21-277).
T5 construct: also called CD40 receptor on human B cells
Kind of test: flow cytometry, labelled CD40L on CD40-293T cells, antibody at 20 ug/ml. Here is the method: (§1) Percent ligand binding inhibition was calculated as [(CD40L binding gMFI in the absence of anti-CD40)−(CD40L binding gMFI in the presence of anti-CD40)]/(CD40L binding gMFI in the absence of anti-CD40). gMFI: geometric mean fluorescent intensity. All anti-CD40 antibodies show minimal effects on the ability of CD40L to bind to the CD40 receptor (Table 7).
A general note: Flow cytometry measures light scatter and fluorescence of single cells or particles in a stream.
Target sequence in this assay (P25942 21-277 limits assumed): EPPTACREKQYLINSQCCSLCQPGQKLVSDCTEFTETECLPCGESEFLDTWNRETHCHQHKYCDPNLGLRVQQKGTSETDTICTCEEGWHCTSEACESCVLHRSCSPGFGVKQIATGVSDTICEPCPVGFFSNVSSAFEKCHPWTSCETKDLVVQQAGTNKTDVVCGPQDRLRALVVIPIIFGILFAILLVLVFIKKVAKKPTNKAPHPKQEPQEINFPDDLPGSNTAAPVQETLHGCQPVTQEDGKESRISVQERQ
Turning to B1, the “Ligand Binding Inhibition (%)” value turned out to be 8%.

With B2, the “Ligand Binding Inhibition (%)” value came out at 3%.

Take B3: the “Ligand Binding Inhibition (%)” value was found to be 2%.

With B4, the “Ligand Binding Inhibition (%)” value is -3%.

The target in another test is T1, human TNFR1. Description: flow cytometry, HEK293 transfectants vs control cells. Here is the method:
(§2) The binding affinity of anti-human CD40 antibodies to human and cynomolgus monkey CD40 was measured by Octet assay (Table 3), quantifying association rate (Kon), disassociation rate (Kdis), and equilibrium binding constant (KD). Cross-reactivity of anti-CD40 antibodies to related TNF receptor superfamily (TNFRSF) members was evaluated by expressing human TNFR1, TNFR2, TNFR10, or TNFR14 on HEK293 cells by transient transfection of expression vectors encoding these genes. Binding of indicated anti-human CD40 antibody to these transfected cells was determined by flow cytometry. […] Cross-reactivity of anti-CD40 antibodies to cynomolgus monkey and mouse CD40 was evaluated by expressing cynomolgus monkey or mouse CD40 on HEK293 cells by transient transfection of expression vectors encoding these genes. Binding of indicated anti-human CD40 antibody to cells overexpressing cynomolgus monkey and mouse CD40 was determined by flow cytometry.
In the case of B1, the “fold over control (gMFI)” value is 1 fold.

Take B2: the “fold over control (gMFI)” value is 0.97 fold.

Take B3: the “fold over control (gMFI)” value came to 1 fold.

B4: the “fold over control (gMFI)” value was 1.07 fold.

The next test addresses T2, human TNFR14. Described as above. Here is the method: as §2
Turning to B1, the “fold over control (gMFI)” value came out at 0.74 fold.

Take B2: the “fold over control (gMFI)” value is 0.89 fold.

In the case of B3, the “fold over control (gMFI)” value stood at 0.89 fold.

For the molecule B4, the “fold over control (gMFI)” value came out at 0.96 fold.

In another test the target is T3, cynomolgus monkey CD40 on cells. The test is described as above. Here is the method:
as §2
B1: the “fold over control (gMFI)” value stood at 76 fold.

Regarding B2, the “fold over control (gMFI)” value worked out at 57 fold.

With B3, the “fold over control (gMFI)” value worked out at 87 fold.

Turning to B4, the “fold over control (gMFI)” value was found to be 71 fold.

The next test deals with T4, human TNFR2. The test is described as above. As to the method: as §2
With B1, the “fold over control (gMFI)” value turned out to be 0.85 fold.

Regarding B2, the “fold over control (gMFI)” value came out at 0.9 fold.

B3: the “fold over control (gMFI)” value was 0.9 fold.

Regarding B4, the “fold over control (gMFI)” value was determined as 0.89 fold.

Another test concerns the target T5, human CD40 on cells. Description: flow cytometry, labelled CD40L on CD40-293T cells, antibody at 2.5 ug/ml. As to the method: as §1
Target sequence in this assay (P25942 21-277 limits assumed): as above
Turning to B1, the “Ligand Binding Inhibition (%)” value is -15%.

Regarding B2, the “Ligand Binding Inhibition (%)” value stood at 21%.

For the molecule B3, the “Ligand Binding Inhibition (%)” value was found to be 7%.

Turning to B4, the “Ligand Binding Inhibition (%)” value was -16%.

A further test addresses T5, human CD40 on cells. Description: cell-based or functional assay.
Target sequence in this assay (P25942 21-277 limits assumed): as above
As for B1, the “human B cell proliferation, no crosslinking, % Max Activity” value amounted to 4.4%; the “human B cell proliferation, no crosslinking, EC50” value is > 16700 pM; the “human B cell proliferation, with protein G crosslinking, % Max Activity” value was 120%; the “human B cell proliferation, with protein G crosslinking, EC50” value amounted to 300 pM.

For the molecule B2, the “human B cell proliferation, no crosslinking, % Max Activity” value amounted to 6%; the “human B cell proliferation, no crosslinking, EC50” value is > 16700 pM; the “human B cell proliferation, with protein G crosslinking, % Max Activity” value came out at 70.5%; the “human B cell proliferation, with protein G crosslinking, EC50” value was found to be 500 pM.

Consider B3, for which the “human B cell proliferation, no crosslinking, % Max Activity” value is 6.1%; the “human B cell proliferation, no crosslinking, EC50” value was > 16700 pM; the “human B cell proliferation, with protein G crosslinking, % Max Activity” value was found to be 76.6%; the “human B cell proliferation, with protein G crosslinking, EC50” value is 210 pM.

On to B4, for which the “human B cell proliferation, no crosslinking, % Max Activity” value was determined as 8.6%; the “human B cell proliferation, no crosslinking, EC50” value is > 16700 pM; the “human B cell proliferation, with protein G crosslinking, % Max Activity” value stood at 89.1%; the “human B cell proliferation, with protein G crosslinking, EC50” value worked out at 400 pM.

A further test has as its target T1, human TNFR1. Kind of test: flow cytometry, HEK293 transfectants. Here is the method: as §2
With B1, the binding result is “no binding”.

As to B2, the binding result is “no binding”.

Turning to B3, the binding result is given as “no binding”.

Take B4: the binding result is “no binding”.

The target of the next test is T2, human TNFR14. Description: flow cytometry, HEK293 transfectants. Here is the method:
as §2
As to B1, the binding result is “no binding”.

Consider B2, for which the binding result is given as “no binding”.

In the case of B3, the binding result is on record as “no binding”.

Consider B4, for which the binding result was “no binding”.

In another test the target is T4, human TNFR2. Description: flow cytometry, HEK293 transfectants. As to the method:
as §2
In the case of B1, the binding result is “no binding”.

As for B2, the binding result is recorded as “no binding”.

For B3, the binding result is on record as “no binding”.

For the molecule B4, the binding result was “no binding”.

In the next test the target is T5, human CD40 on cells. Description: flow cytometry, labelled CD40L on CD40-293T cells, antibody at 10 ug/ml. As to the method: as §1
Target sequence in this assay (P25942 21-277 limits assumed): as above
As for B1, the “Ligand Binding Inhibition (%)” value came out at 51%.

For B2, the “Ligand Binding Inhibition (%)” value was 14%.

Regarding B3, the “Ligand Binding Inhibition (%)” value is 3%.

As to B4, the “Ligand Binding Inhibition (%)” value is -8%.

In the next test the target is T5, human CD40 on cells. Description: cell-based or functional assay. This is another data set of the same source.
As to B1, the “human B cell proliferation, no crosslinking, EC50” value was > 16700 pM; the “human B cell proliferation, no crosslinking, Max Fold Change” value worked out at 1.33 fold; the “human B cell proliferation, with protein G crosslinking, EC50” value came to 371 pM; the “human B cell proliferation, with protein G crosslinking, Max Fold Change” value was determined as 24.2 fold.

Consider B2, for which the “human B cell proliferation, no crosslinking, EC50” value is > 16700 pM; the “human B cell proliferation, no crosslinking, Max Fold Change” value turned out to be 1.19 fold; the “human B cell proliferation, with protein G crosslinking, EC50” value was 430 pM; the “human B cell proliferation, with protein G crosslinking, Max Fold Change” value was determined as 18.1 fold.

In the case of B3, the “human B cell proliferation, no crosslinking, EC50” value is > 16700 pM; the “human B cell proliferation, no crosslinking, Max Fold Change” value amounted to 1.24 fold; the “human B cell proliferation, with protein G crosslinking, EC50” value is 529 pM; the “human B cell proliferation, with protein G crosslinking, Max Fold Change” value came out at 23 fold.

Take B4: the “human B cell proliferation, no crosslinking, EC50” value is > 16700 pM; the “human B cell proliferation, no crosslinking, Max Fold Change” value amounted to 1.45 fold; the “human B cell proliferation, with protein G crosslinking, EC50” value came to 362 pM; the “human B cell proliferation, with protein G crosslinking, Max Fold Change” value is 23.8 fold.

The target of the next test is T5, human CD40 on cells. Description: flow cytometry, labelled CD40L on CD40-293T cells, antibody at 5 ug/ml. Here is the method: as §1
Target sequence in this assay (P25942 21-277 limits assumed): as above
As for B1, the “Ligand Binding Inhibition (%)” value is -5%.

For B2, the “Ligand Binding Inhibition (%)” value came to 24%.

In the case of B3, the “Ligand Binding Inhibition (%)” value is -6%.

With B4, the “Ligand Binding Inhibition (%)” value is -15%.
